Measured values taken from patent publication US20230340089A1 (CITY OF HOPE, published 2023).

T1: Structural Maintenance of Chromosome-1A (SMC1A) (human, UniProt Q14683 1-1233)
T1 construct: whole, on cells; Endogenous antigen; It is on live or fixed cells in flow cytometry, LI-COR cell surface assay, ICC and immunogold EM, and in cell lysates in Western blot and immunoprecipitation; No recombinant SMC1A was used; also called SMC1A antigen; surface SMC1
T1 sequence (looked up): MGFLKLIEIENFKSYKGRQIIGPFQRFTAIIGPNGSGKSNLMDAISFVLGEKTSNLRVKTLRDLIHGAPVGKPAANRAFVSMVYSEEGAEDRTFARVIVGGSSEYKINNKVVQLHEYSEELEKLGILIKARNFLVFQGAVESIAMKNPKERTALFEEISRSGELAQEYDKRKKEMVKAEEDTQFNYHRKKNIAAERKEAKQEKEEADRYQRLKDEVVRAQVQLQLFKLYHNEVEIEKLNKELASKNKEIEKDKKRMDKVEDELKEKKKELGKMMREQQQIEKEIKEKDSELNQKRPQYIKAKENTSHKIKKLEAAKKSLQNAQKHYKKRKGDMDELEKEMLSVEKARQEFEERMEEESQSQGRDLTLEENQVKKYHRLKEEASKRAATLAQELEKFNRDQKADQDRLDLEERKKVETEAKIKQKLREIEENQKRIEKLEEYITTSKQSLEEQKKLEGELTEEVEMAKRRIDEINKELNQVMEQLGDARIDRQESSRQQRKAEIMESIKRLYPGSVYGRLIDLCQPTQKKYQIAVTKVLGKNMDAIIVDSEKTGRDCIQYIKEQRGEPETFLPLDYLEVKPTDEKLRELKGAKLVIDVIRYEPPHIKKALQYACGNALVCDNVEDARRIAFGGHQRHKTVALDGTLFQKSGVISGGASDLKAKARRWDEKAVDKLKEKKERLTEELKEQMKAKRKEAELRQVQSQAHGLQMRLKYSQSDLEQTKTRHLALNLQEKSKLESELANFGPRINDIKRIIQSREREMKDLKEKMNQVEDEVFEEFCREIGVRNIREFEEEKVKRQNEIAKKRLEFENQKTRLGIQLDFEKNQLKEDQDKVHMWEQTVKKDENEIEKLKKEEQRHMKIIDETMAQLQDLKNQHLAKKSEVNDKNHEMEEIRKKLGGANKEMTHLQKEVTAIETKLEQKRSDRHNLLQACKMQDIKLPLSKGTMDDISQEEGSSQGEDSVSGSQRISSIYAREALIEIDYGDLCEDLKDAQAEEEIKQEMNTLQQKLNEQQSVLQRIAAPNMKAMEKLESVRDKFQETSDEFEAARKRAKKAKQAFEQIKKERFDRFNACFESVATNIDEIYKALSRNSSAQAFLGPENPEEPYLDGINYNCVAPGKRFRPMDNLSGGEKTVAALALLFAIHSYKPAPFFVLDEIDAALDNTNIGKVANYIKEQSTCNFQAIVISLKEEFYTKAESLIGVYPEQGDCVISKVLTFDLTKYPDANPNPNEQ

B1: SMC1A4-chimeric antibody (antibody, V domains shown)
VH: VQLQQSGAELVKPGASVKLSCTASGFNIKDPYMHWVKQRPEQGLEWIGWITPANGNTKYDPKFQAKATITADTYSNTAYLQFSSLTSEDTAVYFCARSGDAYYWAWFAYWGQGTLVTVSA
VL: DVLMTQTPLSLTVSLGDQASISCRSSQSIVHSNGNTYLEWYLQKPGQSPKLLIYKVSNRFSGVSDRFSGSGSGTDFTLKISRVEAEDLGVYYCFQGPLYTFGGGTKLEIKR
notes: Chimeric IgG detected with anti-human secondary antibodies; also called chimeric SMC1A4; SMC1A4 chimeric monoclonal antibody
B2: SMC1A1 (antibody, V domains shown)
VH: VTLKESGPGILQPSQTLSLTCSFSGFSLSTSGMGVGWIRQPSGKGLEWLAHIWWDDDQYSNTALRSGLTISKDTSKNQVFLKIASVDTSDTATYYCARVTTDAVDYWGQGTSVTVSS
VL: QIVLTQSPAIMSISPGERVTMTCSASSGLTYMYWYQQKPGSSPRLLIYDTSNLASGVPVRFSGSGSGTSYSLTISRMEAEDAATYYCQQWKSFPPTFGGGTKLEIKR
notes: also called SMC1A-ALPHA1
B3: chimeric SMC1A1 mAb (antibody, V domains shown)
VH: B2 VH
VL: B2 VL
notes: also called SMC1A-ALPHA1
B4: meditope-enabled SMC1A4 (antibody, human IgG1, kappa, V domains shown)
VH: EVQLVESGGGLVQPGGSLRLSCAASGFNIKDPYMHWVRQSPGKGLEWIGWITPANGNTKYADSVKGRATISADTSKNTAYLQMNSLRAEDTAIYFCARSGDAYYWAWFAYWGQGTLVTVSS
VL: DVQMTQSPILLSASVGDRVTITCRSSQSIVHSNGNTYLEWYQQRTNGSPRLLIYKVSNRFSGVPSRFSGSGSGTDFTLTISSLQPEDIADYYCFQGPLYTFGAGTKVEIKR
notes: It was detected with anti-human secondary antibodies; also called SMC1A4-me; SMC1A4-ME
B5: SMC1-Beta (antibody, V domains shown)
VH: EVKLQESGPELVKSGASVKIPCKASGYTFTDFNIEWVKQNRGKSLEWIGDINPSNGETIYNKKFKGKATLTVDKSSTTAFMELRSLTSEDTAVYYCARDHYYGYDYDAMDYWGQGTSVTVSS
VL: QIVLTQSPAIMSASPGEKVTMTCSASSSIGYMHWYQQKPGTSPKRWIYDRSKLASGVPARFSGSGSGTSFSLTISSMEAEDAATYYCHQRSRYPYTFGGGTKLEIKR

Columns and labels:
[1] = molecular target: T1, Structural Maintenance of Chromosome-1A …; assay: immunoprecipitation, then Western blot with the Bethyl anti-human SMC1A polyclonal antibody
[2] = molecular target: T1, Structural Maintenance of Chromosome-1A …; assay: LI-COR based cell surface assay on tumor cells
[3] = molecular target: T1, Structural Maintenance of Chromosome-1A …; assay: Western blot of HCT116, HT29 and MDA-MB-231 lysates, 1 ug/ml
Procedure: For each Westem blot, the cell lysates used as samples were from HCT116 cells (1), HT29 cells (2) and MDA-MB-231 cells (3). […] The secondary antibody used was an anti-human-HRP (dilution 1:3000) and incubated for 1 hour at room temperature with the overnight incubations.

Binder | binding result [1] | binding result [2] | also measured
B1 | binds |  | 
B2 |  | binds | 
B3 | binds |  | 
B4 |  |  | binding result [3]: binds
B5 |  | binds | 
